Measured values published in patent US20200330603A1, “PEPTIDES FOR RENAL THERAPY” (FRED HUTCHINSON CANCER RESEARCH CENTER, priority 2015, published 2020).
Ends that are not written are not given here.

system: not listed separately; assay: Plasma BUN, assessment of renal injury (Example 14); assay type: in vivo, mice; conditions: Table 4; 100 nmol iv; time not stated for this column (mRNAs at four hours)
Protocol: (§1) This example illustrates assessment of renal injury by peptides of this disclosure. Mice were injected intravenously at a dose of 100 nmol, which is approximately 16 mg/kg. PBS was administered as a negative control. At 24 hours post-peptide administration, mice were euthanized and plasma blood urea nitrogen (BUN) and plasma creatinine were measured. The blood urea nitrogen (BUN) assay was performed to assess renal toxicity with a commercially available kit. Plasma creatinine concentrations were determined using the colorimetrically corrected Jaffe reaction method. Additionally, the kidneys from these mice were removed, sectioned, and stained using periodic acid Schiff (PAS). […] Histological analysis corroborated the mRNA/protein data.

Question: For “GSSCARPRENCNRMNILCCRGECVCPTFGDCFCYGD [SEQ ID NO: 54]”, which “Plasma BUN” value is on record?
Answer: 26 mg/dL

Question: For “GSSCEPGTTFRDRCNTCRCGSDGRSAACTLRACPQ [SEQ ID NO: 46]”, which “Plasma BUN” value is on record?
Answer: 22 mg/dL

system: not listed separately; assay: Fluorescent peptide delivery to kidneys, whole body fluorescence analysis; assay type: in vivo; conditions: 10 nmol iv, 3 hours, average and standard deviation from two mice
Protocol: This example illustrates fluorescent peptide delivery to kidneys. Peptides were labeled by reaction with NHS esters of Cy5.5 or AlexaFluor 647 (AF647). For comparison, the free […] NHS esters were hydrolyzed to produce unreactive Cy5.5-COOH and AF647-COOH. A dose of 10 nmol of dye-labeled peptide or dye alone was administered intravenously and fluorescence was measured at 3 hours, 24 hours, and 48 hours after administration. At each time point, mice were frozen and sectioned for whole body fluorescence analysis, which was performed by scanning the sections on the Odyssey 2.1 at 84 um resolution using the 700 channel.
Average and standard deviation are presented from two mice per group.

Question: Which “Fluorescence Signal in Kidneys 3 hours” value does the source give for Cy5.5 here?
Answer: 416 ± 170

same assay, conditions: 10 nmol iv, 24 hours, average and standard deviation from two mice

Question: For Cy5.5, which “Fluorescence Signal in Kidneys 24 hours” value is on record?
Answer: 88 ± 8

same assay, conditions: 10 nmol iv, 48 hours, average and standard deviation from two mice

Question: With Cy5.5 as the compound, how does the “Fluorescence Signal in Kidneys 48 hours” value read?
Answer: 58 ± 11

system: NGAL mRNA; assay: Stress-induced mRNA by RT-PCR, NGAL; assay type: in vivo, mice; conditions: four hours post-peptide administration
Protocol: (§2) At four hours post-peptide administration, potential renal injury was assessed by measuring three stress-induced mRNAs (MCP-1, NGAL, and TNFa).

Question: For “GSSCARPRENCNRMNILCCRGECVCPTFGDCFCYGD [SEQ ID NO: 54]”, which mNGAL/GAPDH is on record?
Answer: 1.58

Question: For “GSSCEPGTTFRDRCNTCRCGSDGRSAACTLRACPQ [SEQ ID NO: 46]”, which mNGAL/GAPDH is on record?
Answer: 1.39

system: not listed separately; assay: Competitive renal uptake studies, fluorescence imaging of whole organs; assay type: in vivo, mice; conditions: 2 nmol SEQ ID NO: 4-AF647 co-injected with 0, 10 or 50 nmol unlabeled peptide, 4 hours
Protocol: This example describes competitive uptake studies of peptides of this disclosure in kidneys. Peptides of this disclosure were compared to known kidney homers (“competitors”) to assess the efficiency and strength of kidney targeting. Three competitors were tested against a peptide of SEQ ID NO: 4, and kidney uptake was quantified by fluorescence imaging of whole organs on a Spectrum IVIS imager.
Kidneys from uninjected mice were used as a negative control. Fluorescence signal in each group was quantified to determine the average radiant efficiency in the kidneys from three mice per cohort. Data are shown as mean and error bars indicate standard deviation. A p-value of 0.0081 was calculated by a T-test, and the error bars indicate standard deviation. In this experiment, the unlabeled SEQ ID NO: 4 peptide competed with the SEQ ID NO: 4-AF647 as shown by decreased fluorescence and thus, decreased accumulation of the dye labeled peptide in the kidney. […] Fluorescence signal in each group was quantified to determine the average radiant efficiency in the kidneys from three mice per cohort. Data are shown as mean and error bars indicate standard deviation. Kidney uptake of a peptide of SEQ ID NO: 4-AF647 was not dampened by SEQ ID NO: 121 peptide even at the highest ratio of competitor. […] Fluorescence signal in each group was quantified to determine the average radiant efficiency in the kidneys from three mice per cohort. Data are shown as mean and error bars indicate standard deviation. A p-value of 0.015 was calculated by a Student's unpaired t-test.

Question: For “GSSCEPGRTFRDRCNTCRCGADGRSAACTLRACPNQ [SEQ ID NO: 4]”, which “renal uptake in competition with unlabeled SEQ ID NO: 4 (FIG. 10)” value is on record?
Answer: specific and saturable

same assay, conditions: 2 nmol SEQ ID NO: 4-AF647 co-injected with 100 or 2000 nmol competitor, 1 hour

Question: With “KKEEEKKEEEKKEEEKK [SEQ ID NO: 121, reference compound]” as the compound, how does the “competition with kidney uptake of SEQ ID NO: 4-AF647 (FIG. 11)” value read?
Answer: failed to compete

system: not listed separately; assay: Whole body autoradiography of 14C labeled peptides, renal cortex and blood; assay type: in vivo, mice; conditions: renal cortex vs blood from the ventricle, 100 nmol iv, 3 hours
Source text: This example describes radiolabeling of peptides of this disclosure. Several knotted peptides were radiolabeled by reductive methylation with ^14C formaldehyde and sodium cyanoborohydride with standard techniques. The sequences were engineered to have the amino acids, “G” and “S” at the N terminus. See Methods in Enzymology V91:1983 p. 570 and JBC 254(11):1979 p. 4359. An excess of formaldehyde was used to ensure complete methylation (dimethylation of every free amine). The labeled peptides were isolated via solid-phase extraction on Strata-X columns (Phenomenex 8B-S100-AAK), rinsed with water with 5% methanol, and recovered in methanol with 2% formic acid. Solvent was subsequently removed in a blowdown evaporator with gentle heat and a stream of nitrogen gas. The final product was verified and characterized by high performance liquid chromatography (HPLC).
This example illustrates accumulation of peptides of the present disclosure in kidneys measured by whole body autoradiography. Peptides of the present disclosure were radiolabeled as described in EXAMPLE 2. 100 nmol of ^14C labeled peptides were administered intravenously in mice. Radiolabeled peptide signal was quantified in the renal cortex and blood from the ventricle in 2-3 sections per mouse in 2 mice total. Whole body autoradiography analysis was performed with AIDA.
SEQ ID NO: 55 and SEQ ID NO: 119 ([…]), a linearized version of SEQ ID NO: 55, were radiolabeled with ^14C as described in EXAMPLE 2 and administered intravenously in mice at a dose of 100 nmol. Radiolabeled peptide signal was quantified in the renal cortex and blood from the ventricle in 2-3 sections per mouse in 2 mice total. Whole body autoradiography analysis was performed with AIDA.

Question: For “GSSCARPRENCNRMNILCCRGECVCPTFGDCFCYGD [SEQ ID NO: 54]”, which “Signal ratio Kidney:Blood (3 hours)” value is on record?
Answer: 0.8

Question: With “GSSCEPGTTFRDRCNTCRCGSDGRSAACTLRACPQ [SEQ ID NO: 46]” as the compound, how does the “Signal ratio Kidney:Blood (3 hours)” value read?
Answer: 4.7

same assay, conditions: renal cortex vs blood from the ventricle, 100 nmol iv, 24 hours

Question: For “GSSCARPRENCNRMNILCCRGECVCPTFGDCFCYGD [SEQ ID NO: 54]”, which “Signal ratio Kidney:Blood (24 hours)” value is on record?
Answer: 7.2

Question: Which “Signal ratio Kidney:Blood (24 hours)” value does the source give for “GSSCEPGTTFRDRCNTCRCGSDGRSAACTLRACPQ [SEQ ID NO: 46]” here?
Answer: 6

same assay, conditions: renal cortex, 100 nmol 14C labeled peptide iv, 3 hours

Question: For “GSSCARPRENCNRMNILCCRGECVCPTFGDCFCYGD [SEQ ID NO: 54]”, which “Pixel density-Bkg/area (3 hours)” value is on record?
Answer: 1.48E+06

Question: For “GSSCEPGTTFRDRCNTCRCGSDGRSAACTLRACPQ [SEQ ID NO: 46]”, which “Pixel density-Bkg/area (3 hours)” value is on record?
Answer: 8.83E+05

same assay, conditions: renal cortex, 100 nmol 14C labeled peptide iv, 24 hours

Question: For “GSSCARPRENCNRMNILCCRGECVCPTFGDCFCYGD [SEQ ID NO: 54]”, which “Pixel density-Bkg/area (24 hours)” value is on record?
Answer: 1.95E+06

Question: Which “Pixel density-Bkg/area (24 hours)” value does the source give for “GSSCEPGTTFRDRCNTCRCGSDGRSAACTLRACPQ [SEQ ID NO: 46]” here?
Answer: 1.49E+06

system: not listed separately; assay: Accumulation of 14C-methylated peptide in renal tissue (Example 3); assay type: in vivo, mice; conditions: 14C autoradiography, iv 30-100 nmol per mouse; 3 hours and 24 hours
Protocol: This example describes accumulation of peptides of this disclosure in renal tissue. ^14C-methylated knotted peptides were intravenously dosed into mice at 30-100 nmol per mouse. […] Cryosectioning was performed on a Bright-Hacker cryotome, taking 40 μm sagittal sections. Collected sections were allowed to freeze dry at −20° C. for 48-72 hours before being exposed to phosphor imager plates. Plates were exposed for 7 days then scanned on a RayTest CR-Bio35 scanner. Analysis was performed with AIDA WBA analysis software.

Question: Which renal signal pattern does the source give for `CNCCC(Oc1ccc(C(F)(F)F)cc1)c1ccccc1` (stereo not drawn) [fluoxetine, reference compound] here?
Answer: non-interactive passage through the kidneys

Question: For “GSSCEPGRTFRDRCNTCRCGADGRSAACTLRACPNQ [SEQ ID NO: 4]”, which renal signal pattern is on record?
Answer: interacting with the kidney, likely cells of the proximal tubule

system: not listed separately; assay: Plasma creatinine, Jaffe reaction method (Example 14); assay type: in vivo, mice; conditions: Table 4; 100 nmol iv; time not stated for this column (mRNAs at four hours)
Protocol: as §1

Question: Which “Plasma Creatinine” value does the source give for “GSSCARPRENCNRMNILCCRGECVCPTFGDCFCYGD [SEQ ID NO: 54]” here?
Answer: 0.26 mg/dL

Question: With “GSSCEPGTTFRDRCNTCRCGSDGRSAACTLRACPQ [SEQ ID NO: 46]” as the compound, how does the “Plasma Creatinine” value read?
Answer: 0.29 mg/dL

system: TNFa mRNA; assay: Stress-induced mRNA by RT-PCR, TNFa; assay type: in vivo, mice; conditions: four hours post-peptide administration
Protocol: as §2

Question: With “GSSCARPRENCNRMNILCCRGECVCPTFGDCFCYGD [SEQ ID NO: 54]” as the compound, how does the mTNFa/GAPDH read?
Answer: 2.42

Question: For “GSSCEPGTTFRDRCNTCRCGSDGRSAACTLRACPQ [SEQ ID NO: 46]”, which mTNFa/GAPDH is on record?
Answer: 2.87

system: HO-1 mRNA; assay: mRNA by RT-PCR, HO-1; assay type: in vivo, mice; conditions: four hours post-peptide administration

Question: With “GSSCARPRENCNRMNILCCRGECVCPTFGDCFCYGD [SEQ ID NO: 54]” as the compound, how does the mHO-1/GAPDH read?
Answer: 0.65

Question: For “GSSCEPGTTFRDRCNTCRCGSDGRSAACTLRACPQ [SEQ ID NO: 46]”, which mHO-1/GAPDH is on record?
Answer: 0.58

system: MCP-1 mRNA; assay: Stress-induced mRNA by RT-PCR, MCP-1; assay type: in vivo, mice; conditions: four hours post-peptide administration
Protocol: as §2

Question: Which mMCP-1/GAPDH does the source give for “GSSCARPRENCNRMNILCCRGECVCPTFGDCFCYGD [SEQ ID NO: 54]” here?
Answer: 0.74

Question: For “GSSCEPGTTFRDRCNTCRCGSDGRSAACTLRACPQ [SEQ ID NO: 46]”, which mMCP-1/GAPDH is on record?
Answer: 0.64
